Results from publication PMC4137108.

Assays:
[1] = target: Apaf-1 (human (endogenous in HeLa)) (UniProt O14727)
[2] = target: Apaf-1 (human (endogenous in HeLa)) (UniProt O14727); remark: listed apart in the source

Sequence of UniProt O14727 (O14727 whole entry): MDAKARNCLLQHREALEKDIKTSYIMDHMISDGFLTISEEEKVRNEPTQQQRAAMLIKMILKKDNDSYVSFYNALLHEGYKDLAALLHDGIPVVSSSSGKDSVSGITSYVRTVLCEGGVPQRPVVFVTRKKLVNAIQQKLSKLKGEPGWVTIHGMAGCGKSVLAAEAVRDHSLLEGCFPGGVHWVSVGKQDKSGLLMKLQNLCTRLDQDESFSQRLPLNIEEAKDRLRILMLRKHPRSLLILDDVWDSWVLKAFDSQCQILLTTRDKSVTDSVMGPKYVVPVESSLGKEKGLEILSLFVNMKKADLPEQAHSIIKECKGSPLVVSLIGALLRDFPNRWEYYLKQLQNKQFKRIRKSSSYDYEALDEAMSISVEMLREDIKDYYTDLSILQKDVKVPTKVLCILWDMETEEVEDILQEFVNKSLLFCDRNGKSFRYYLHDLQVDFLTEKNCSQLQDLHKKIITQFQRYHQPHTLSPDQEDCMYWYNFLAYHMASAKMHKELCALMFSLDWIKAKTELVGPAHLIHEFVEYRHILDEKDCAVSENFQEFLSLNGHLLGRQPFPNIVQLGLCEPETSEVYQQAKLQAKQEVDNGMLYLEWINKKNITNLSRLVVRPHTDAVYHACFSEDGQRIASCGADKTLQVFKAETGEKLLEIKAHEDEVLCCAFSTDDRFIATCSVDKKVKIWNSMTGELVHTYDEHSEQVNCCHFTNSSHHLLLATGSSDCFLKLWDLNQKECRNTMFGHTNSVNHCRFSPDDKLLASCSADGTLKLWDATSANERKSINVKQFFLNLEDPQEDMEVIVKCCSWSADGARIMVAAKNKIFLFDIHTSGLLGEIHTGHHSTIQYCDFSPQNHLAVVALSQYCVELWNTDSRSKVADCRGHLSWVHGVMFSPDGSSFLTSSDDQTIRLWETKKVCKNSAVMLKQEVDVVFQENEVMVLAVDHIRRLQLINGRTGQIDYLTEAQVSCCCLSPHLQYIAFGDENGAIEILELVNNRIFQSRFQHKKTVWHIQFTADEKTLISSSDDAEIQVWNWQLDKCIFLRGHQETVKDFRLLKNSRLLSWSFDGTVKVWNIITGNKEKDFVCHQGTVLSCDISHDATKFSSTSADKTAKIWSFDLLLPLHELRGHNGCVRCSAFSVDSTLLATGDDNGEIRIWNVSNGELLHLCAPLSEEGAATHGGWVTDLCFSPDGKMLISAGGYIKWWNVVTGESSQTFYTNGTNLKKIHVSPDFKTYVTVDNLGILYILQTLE

cell-free caspase 3 activation in HeLa cytosol (DEVD-pNA), relative to non-modified Cyt c (the reference itself) [1]: 100%
cell-free caspase 9 activation in HeLa cytosol (LEHD-pNA), relative to non-modified Cyt c (the reference itself) [1]: 100%
relative caspase 3 activation in a cell-free system after precipitation of Cyt c with acetone (water-organic solvent interface) [2]: 51%
relative caspase 3 activation in a cell-free system after precipitation of Cyt c with acetonitrile (water-organic solvent interface) [2]: 64%
Substance: Cytochrome c from equine heart (from UniProt P00004 1-105) (natural protein)
